The record followed here is article PMC7019770.

First the molecules themselves.
B1: PRA, C-terminal domain of MYH9 (recombinant, wild type) K1673A (protein)
chain: MRELEDTRASREEILAQAKENEAKLKSMEAEMIQLQEELAAAERAKRQAQQERDELADEIANSSGKGALALEEKRRLEARIAQLEEELEEEQGNTELVNDRLKKANLQIDQINTDLNLERSHAQKNENARQQLERQNKELKVKLQEMEGTVKSKYKASIAALEAKIAQLEEQLDNETKERQAACKQVRRAEKKLKDVLLQVDDERRNAEQYKDQADKASTRLKQLKRQLEEAEEEAQRANASRRKLQRELEDATETADAMNREVSSLKNKLRRGDLPFVVPRRMGRKGAGDCSDEEVDGKADGAEAKAAE
B2: PRA, C-terminal domain of MYH9 (recombinant, wild type) E1679A (protein)
chain: MRELEDTRASREEILAQAKENEKKLKSMAAEMIQLQEELAAAERAKRQAQQERDELADEIANSSGKGALALEEKRRLEARIAQLEEELEEEQGNTELVNDRLKKANLQIDQINTDLNLERSHAQKNENARQQLERQNKELKVKLQEMEGTVKSKYKASIAALEAKIAQLEEQLDNETKERQAACKQVRRAEKKLKDVLLQVDDERRNAEQYKDQADKASTRLKQLKRQLEEAEEEAQRANASRRKLQRELEDATETADAMNREVSSLKNKLRRGDLPFVVPRRMGRKGAGDCSDEEVDGKADGAEAKAAE
B3: PRA, C-terminal domain of MYH9 (recombinant, wild type) E1670A; K1673A; E1679A; I1683A (protein)
chain: MRELEDTRASREEILAQAKANEAKLKSMAAEMAQLQEELAAAERAKRQAQQERDELADEIANSSGKGALALEEKRRLEARIAQLEEELEEEQGNTELVNDRLKKANLQIDQINTDLNLERSHAQKNENARQQLERQNKELKVKLQEMEGTVKSKYKASIAALEAKIAQLEEQLDNETKERQAACKQVRRAEKKLKDVLLQVDDERRNAEQYKDQADKASTRLKQLKRQLEEAEEEAQRANASRRKLQRELEDATETADAMNREVSSLKNKLRRGDLPFVVPRRMGRKGAGDCSDEEVDGKADGAEAKAAE
B4: PRA, C-terminal domain of MYH9 (recombinant, wild type) I1683A (protein)
chain: MRELEDTRASREEILAQAKENEKKLKSMEAEMAQLQEELAAAERAKRQAQQERDELADEIANSSGKGALALEEKRRLEARIAQLEEELEEEQGNTELVNDRLKKANLQIDQINTDLNLERSHAQKNENARQQLERQNKELKVKLQEMEGTVKSKYKASIAALEAKIAQLEEQLDNETKERQAACKQVRRAEKKLKDVLLQVDDERRNAEQYKDQADKASTRLKQLKRQLEEAEEEAQRANASRRKLQRELEDATETADAMNREVSSLKNKLRRGDLPFVVPRRMGRKGAGDCSDEEVDGKADGAEAKAAE
B5: PRA, C-terminal domain of MYH9 (recombinant, wild type) E1670A (protein)
chain: MRELEDTRASREEILAQAKANEKKLKSMEAEMIQLQEELAAAERAKRQAQQERDELADEIANSSGKGALALEEKRRLEARIAQLEEELEEEQGNTELVNDRLKKANLQIDQINTDLNLERSHAQKNENARQQLERQNKELKVKLQEMEGTVKSKYKASIAALEAKIAQLEEQLDNETKERQAACKQVRRAEKKLKDVLLQVDDERRNAEQYKDQADKASTRLKQLKRQLEEAEEEAQRANASRRKLQRELEDATETADAMNREVSSLKNKLRRGDLPFVVPRRMGRKGAGDCSDEEVDGKADGAEAKAAE

This assay concerns the target Mab2-5G2, monoclonal anti-idiotypic antibody recognizing an antibody that specifically interacts with PRRSV glycoprotein 5 (GP5). Briefly: ELISA. The following applies: chain shown with the change; Mab2-5G2 as plate-coating protein; anti-PRA rabbit serum for detection; parent: est. 1.6; read off a plot.
Take B1: the response was determined as 0.4 OD450.

Turning to B2, the response was 0.36 OD450.

Regarding B3, the response is 0.41 OD450.

In the case of B4, the response amounted to 0.61 OD450.

B5: the response amounted to 0.46 OD450.
